{"source": "patent US7410949", "key": {"Y4R": {"molecular_target": "Y4R", "assay": "cell-based or functional assay"}, "Y1R": {"molecular_target": "Y1R", "sequence (P25929 whole entry)": "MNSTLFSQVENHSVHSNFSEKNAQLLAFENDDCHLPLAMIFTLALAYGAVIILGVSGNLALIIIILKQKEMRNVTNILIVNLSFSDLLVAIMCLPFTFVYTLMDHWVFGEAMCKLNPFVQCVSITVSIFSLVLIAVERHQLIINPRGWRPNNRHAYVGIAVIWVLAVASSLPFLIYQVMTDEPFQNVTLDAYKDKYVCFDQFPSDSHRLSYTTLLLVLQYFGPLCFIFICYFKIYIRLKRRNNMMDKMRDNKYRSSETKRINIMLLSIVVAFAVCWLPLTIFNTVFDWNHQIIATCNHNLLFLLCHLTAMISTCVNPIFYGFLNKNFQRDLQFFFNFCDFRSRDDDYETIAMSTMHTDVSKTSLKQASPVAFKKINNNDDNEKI", "assay": "cell-based or functional assay"}}, "note": "Primed or numbered codes have the meaning given here. [ ]: non-standard residue; d: D form. Pqa″ = not defined here", "data": [{"binder": "H-IK[Pqa″]RHWLNLVTRQRY-NH2 (reading uncertain; also: printed as H-Ile-Lys-Pqa-Arg-His-Trp-Leu-Asn-Leu-Val-Thr-Arg-Gln-Arg-Tyr-NH2)", "note": "[H-Ile-Lys-Pqa-Arg-His-Trp-Leu-Asn-Leu-Val-Thr-Arg-Gln-Arg-Tyr-NH2]", "values": [{"measurement": "Y4R EC50(nM) FLIPR", "setting": "Y4R", "value": "> 5000", "unit": "nM"}]}, {"binder": "H-IK[Pqa″]RHYANLVTRQRY-NH2 (reading uncertain; also: printed as H-Ile-Lys-Pqa-Arg-His-Tyr-Ala-Asn-Leu-Val-Thr-Arg-Gln-Arg-Tyr-NH2)", "note": "[H-Ile-Lys-Pqa-Arg-His-Tyr-Ala-Asn-Leu-Val-Thr-Arg-Gln-Arg-Tyr-NH2]", "values": [{"measurement": "Y1R EC50(nM) FLIPR", "setting": "Y1R", "value": "> 5000", "unit": "nM"}, {"measurement": "Y4R EC50(nM) FLIPR", "setting": "Y4R", "value": "> 5000", "unit": "nM"}]}, {"binder": "H-IK[Pqa″]RHALNLVTRQRY-NH2 (reading uncertain; also: printed as H-Ile-Lys-Pqa-Arg-His-Ala-Leu-Asn-Leu-Val-Thr-Arg-Gln-Arg-Tyr-NH2)", "note": "[H-Ile-Lys-Pqa-Arg-His-Ala-Leu-Asn-Leu-Val-Thr-Arg-Gln-Arg-Tyr-NH2]", "values": [{"measurement": "Y1R EC50(nM) FLIPR", "setting": "Y1R", "value": "> 5000", "unit": "nM"}, {"measurement": "Y4R EC50(nM) FLIPR", "setting": "Y4R", "value": "> 5000", "unit": "nM"}]}, {"binder": "H-IK[Pqa″]AHWLNLVTRQRY-NH2 (reading uncertain; also: printed as H-Ile-Lys-Pqa-Ala-His-Trp-Leu-Asn-Leu-Val-Thr-Arg-Gln-Arg-Tyr-NH2)", "note": "[H-Ile-Lys-Pqa-Ala-His-Trp-Leu-Asn-Leu-Val-Thr-Arg-Gln-Arg-Tyr-NH2]", "values": [{"measurement": "Y4R EC50(nM) FLIPR", "setting": "Y4R", "value": "> 5000", "unit": "nM"}]}]}
